Source: the supplement of paper PMC11246515
± gives the standard deviation of the averaged measurements.

Experiment: total protein half-life in vivo (active degradation + dilution); higher = more stable protein
[1] = E. coli NCM3722 delta-clpP, growth: N-lim chemostat, doubling time 6 h
[2] = E. coli NCM3722 delta-hslV, growth: N-lim chemostat, doubling time 6 h
[3] = E. coli NCM3722 delta-lon, growth: N-lim chemostat, doubling time 6 h
[4] = wild type E. coli NCM3722, growth: C-lim chemostat, doubling time 3 h
[5] = wild type E. coli NCM3722, growth: C-lim chemostat, doubling time 12 h
[6] = wild type E. coli NCM3722, growth: N-lim chemostat, doubling time 6 h
[7] = wild type E. coli NCM3722, growth: P-lim chemostat, doubling time 6 h
[8] = wild type E. coli NCM3722, growth: P-lim chemostat, doubling time 12 h
[9] = E. coli NCM3722 delta-clpP delta-lon delta-hslV, growth: N-lim chemostat, doubling time 6 h
[10] = E. coli NCM3722 delta-smpB, growth: N-lim chemostat, doubling time 6 h
[11] = wild type E. coli NCM3722, growth: C-lim chemostat, doubling time 6 h
[12] = wild type E. coli NCM3722, growth: N-lim chemostat, doubling time 12 h

Sequence: MTVAYIAIGSNLASPLEQVNAALKALGDIPESHILTVSSFYRTPPLGPQDQPDYLNAAVALETSLAPEELLNHTQRIELQQGRVRKAERWGPRTLDLDIMLFGNEVINTERLTVPHYDMKNRGFMLWPLFEIAPELVFPDGEMLRQILHTRAFDKLNKW
- total protein half-life in vivo [1]: 4.02 h
- total protein half-life in vivo [2]: 4.41 h
- total protein half-life in vivo [3]: 4.82 h
- total protein half-life in vivo [4]: 3.22 ± 0.3 h
- total protein half-life in vivo [5]: 10.3 h
- total protein half-life in vivo [6]: 3.76 h
- total protein half-life in vivo [7]: 5.3 h
- total protein half-life in vivo [8]: 10.7 h

Sequence: MTVNSSRNALKRRTWALFMFFFLPGLLMASWATRTPAIRDILSVSIAEMGGVLFGLSIGSMSGILCSAWLVKRFGTRNVILVTMSCALIGMMILSLALWLTSPLLFAVGLGVFGASFGSAEVAINVEGAAVEREMNKTVLPMMHGFYSLGTLAGAGVGMALTAFGVPATVHILLAALVGIAPIYIAIQAIPDGTGKNAADGTQHGEKGVPFYRDIQLLLIGVVVLAMAFAEGSANDWLPLLMVDGHGFSPTSGSLIYAGFTLGMTVGRFTGGWFIDRYSRVAVVRASALMGALGIGLIIFVDSAWVAGVSVVLWGLGASLGFPLTISAASDTGPDAPTRVSVVATTGYLAFLVGPPLLGYLGEHYGLRSAMLVVLALVILAAIVAKAVAKPDTKTQTAMENS
- total protein half-life in vivo [1]: 4.21 h
- total protein half-life in vivo [8]: 7.65 h

Sequence: MTVPTYDKFIEPVLRYLATKPEGAAARDVHEAAADALGLDDSQRAKVITSGQLVYKNRAGWAHDRLKRAGLSQSLSRGKWCLTPAGFDWVASHPQPMTEQETNHLAFAFVNVKLKSRPDAVDLDPKADSPDHEELAKSSPDDRLDQALKELRDAVADEVLENLLQVSPSRFEVIVLDVLHRLGYGGHRDDLQRVGGTGDGGIDGVISLDKLGLEKVYVQAKRWQNTVGRPELQAFYGALAGQKAKRGVFITTSGFTSQARDFAQSVEGMVLVDGERLVHLMIENEVGVSSRLLKVPKLDMDYFE
- total protein half-life in vivo [9]: 5.65 ± 1.1 h
- total protein half-life in vivo [1]: 4.02 ± 0.13 h
- total protein half-life in vivo [2]: 3.84 ± 0.13 h
- total protein half-life in vivo [3]: 4.33 ± 0.27 h
- total protein half-life in vivo [10]: 3.561 ± 0.012 h
- total protein half-life in vivo [4]: 2.94 ± 0.055 h
- total protein half-life in vivo [11]: 4.88 ± 0.19 h
- total protein half-life in vivo [5]: 10.48 ± 0.072 h
- total protein half-life in vivo [6]: 3.599 ± 0.011 h
- total protein half-life in vivo [12]: 7.77 ± 3.8 h
- total protein half-life in vivo [7]: 4.92 ± 0.1 h
- total protein half-life in vivo [8]: 10.4 ± 0.31 h

Sequence: MTVQTSKNPQVDIAEDNAFFPSEYSLSQYTSPVSDLDGVDYPKPYRGKHKILVIAADERYLPTDNGKLFSTGNHPIETLLPLYHLHAAGFEFEVATISGLMTKFEYWAMPHKDEKVMPFFEQHKSLFRNPKKLADVVASLNADSEYAAIFVPGGHGALIGLPESQDVAAALQWAIKNDRFVISLCHGPAAFLALRHGDNPLNGYSICAFPDAADKQTPEIGYMPGHLTWYFGEELKKMGMNIINDDITGRVHKDRKLLTGDSPFAANALGKLAAQEMLAAYAG
- total protein half-life in vivo [9]: 5.25 ± 1.1 h
- total protein half-life in vivo [1]: 5.29 ± 1.6 h
- total protein half-life in vivo [2]: 4.05 ± 0.35 h
- total protein half-life in vivo [3]: 4.62 ± 0.19 h
- total protein half-life in vivo [10]: 4.27 ± 0.24 h
- total protein half-life in vivo [4]: 2.88 ± 0.26 h
- total protein half-life in vivo [11]: 5.19 ± 0.35 h
- total protein half-life in vivo [5]: 10.6 ± 0.23 h
- total protein half-life in vivo [6]: 3.97 ± 0.85 h
- total protein half-life in vivo [12]: 7.51 ± 0.27 h
- total protein half-life in vivo [7]: 5.31 ± 0.43 h
- total protein half-life in vivo [8]: 10.5 ± 1.5 h

Sequence: MTVRILAVCGNGQGSSMIMKMKVDQFLTQSNIDHTVNSCAVGEYKSELSGADIIIASTHIAGEITVTGNKYVVGVRNMLSPADFGPKLLEVIKEHFPQDVK
- total protein half-life in vivo [9]: > 8 h
- total protein half-life in vivo [1]: 5.3 h
- total protein half-life in vivo [2]: 6.08 ± 2.4 h
- total protein half-life in vivo [10]: 3.21 h
- total protein half-life in vivo [4]: 2.24 h
- total protein half-life in vivo [11]: 3.71 h
- total protein half-life in vivo [5]: 4.74 ± 0.78 h
- total protein half-life in vivo [7]: 5.12 ± 1.8 h
- total protein half-life in vivo [8]: 9.81 h

Sequence: MTVTTFSELELDESLLEALQDKGFTRPTAIQAAAIPPALDGRDVLGSAPTGTGKTAAYLLPALQHLLDFPRKKSGPPRILILTPTRELAMQVSDHARELAKHTHLDIATITGGVAYMNHAEVFSENQDIVVATTGRLLQYIKEENFDCRAVETLILDEADRMLDMGFAQDIEHIAGETRWRKQTLLFSATLEGDAIQDFAERLLEDPVEVSANPSTRERKKIHQWYYRADDLEHKTALLVHLLKQPEATRSIVFVRKRERVHELANWLREAGINNCYLEGEMVQGKRNEAIKRLTEGRVNVLVATDVAARGIDIPDVSHVFNFDMPRSGDTYLHRIGRTARAGRKGTAISLVEAHDHLLLGKVGRYIEEPIKARVIDELRPKTRAPSEKQTGKPSKKVLAKRAEKKKAKEKEKPRVKKRHRDTKNIGKRRKPSGTGVPPQTTEE
- total protein half-life in vivo [9]: 5.75 ± 0.085 h
- total protein half-life in vivo [1]: 5.51 ± 0.25 h
- total protein half-life in vivo [2]: 4.72 ± 0.45 h
- total protein half-life in vivo [3]: 5.13 ± 0.37 h
- total protein half-life in vivo [10]: 4.237 ± 0.022 h
- total protein half-life in vivo [4]: 3.01 ± 0.26 h
- total protein half-life in vivo [11]: 5.47 ± 0.41 h
- total protein half-life in vivo [5]: 9.33 ± 0.45 h
- total protein half-life in vivo [6]: 4.2 ± 0.049 h
- total protein half-life in vivo [12]: 7.37 ± 0.27 h
- total protein half-life in vivo [7]: 4.18 ± 0.28 h
- total protein half-life in vivo [8]: 7.44 ± 0.14 h

Sequence: MTWEYALIGLVVGIIIGAVAMRFGNRKLRQQQALQYELEKNKAELDEYREELVSHFARSAELLDTMAHDYRQLYQHMAKSSSSLLPELSAEANPFRNRLAESEASNDQAPVQMPRDYSEGASGLLRTGAKRD [P0ADW3]
- total protein half-life in vivo [9]: 6.13 ± 0.15 h
- total protein half-life in vivo [1]: 5.58 ± 0.45 h
- total protein half-life in vivo [2]: 5.63 ± 0.57 h
- total protein half-life in vivo [3]: 5.76 ± 0.067 h
- total protein half-life in vivo [10]: 5.84 ± 0.37 h
- total protein half-life in vivo [4]: 3.33 ± 0.31 h
- total protein half-life in vivo [11]: 6.4 ± 0.23 h
- total protein half-life in vivo [5]: 12.4 ± 2.7 h
- total protein half-life in vivo [6]: 5.78 ± 0.092 h
- total protein half-life in vivo [12]: 11.7 ± 0.66 h
- total protein half-life in vivo [7]: 5.43 ± 0.44 h
- total protein half-life in vivo [8]: 12.5 ± 1.1 h

Sequence: MTWFIDRRLNGKNKSMVNRQRFLRRYKAQIKQSISEAINKRSVTDVDSGESVSIPTEDISEPMFHQGRGGLRHRVHPGNDHFVQNDRIERPQGGGGGSGSGQGQASQDGEGQDEFVFQISKDEYLDLLFEDLALPNLKQNQQRQLTEYKTHRAGYTANGVPANISVVRSLQNSLARRTAMTAGKRRELHALEENLAIISNSEPAQLLEEERLRKEIAELRAKIERVPFIDTFDLRYKNYEKRPDPSSQAVMFCLMDVSGSMDQSTKDMAKRFYILLYLFLSRTYKNVEVVYIRHHTQAKEVDEHEFFYSQETGGTIVSSALKLMDEVVKERYNPAQWNIYAAQASDGDNWADDSPLCHEILAKKLLPVVRYYSYIEITRRAHQTLWREYEHLQSTFDNFAMQHIRDQDDIYPVFRELFHKQNATAKG
- total protein half-life in vivo [9]: 2.93 ± 0.22 h
- total protein half-life in vivo [1]: 2.2 ± 0.052 h
- total protein half-life in vivo [2]: 1.52 ± 0.018 h
- total protein half-life in vivo [3]: 1.525 ± 0.004 h
- total protein half-life in vivo [10]: 1.49 ± 0.047 h
- total protein half-life in vivo [4]: 1.37 ± 0.082 h
- total protein half-life in vivo [11]: 1.6 ± 0.063 h
- total protein half-life in vivo [5]: 1.95 ± 0.46 h
- total protein half-life in vivo [6]: 1.47 ± 0.039 h
- total protein half-life in vivo [12]: 1.64 ± 0.027 h
- total protein half-life in vivo [7]: 1.98 ± 0.3 h
- total protein half-life in vivo [8]: 3.11 ± 0.88 h

Sequence: MTWLPLNPIPLKDRVSMIFLQYGQIDVIDGAFVLIDKTGIRTHIPVGSVACIMLEPGTRVSHAAVRLAAQVGTLLVWVGEAGVRVYASGQPGGARSDKLLYQAKLALDEDLRLKVVRKMFELRFGEPAPARRSVEQLRGIEGSRVRATYALLAKQYGVTWNGRRYDPKDWEKGDTINQCISAATSCLYGVTEAAILAAGYAPAIGFVHTGKPLSFVYDIADIIKFDTVVPKAFEIARRNPGEPDREVRLACRDIFRSSKTLAKLIPLIEDVLAAGEIQPPAPPEDAQPVAIPLPVSLGDAGHRSS
- total protein half-life in vivo [9]: 4.85 ± 0.84 h
- total protein half-life in vivo [10]: 1.32 ± 0.25 h
- total protein half-life in vivo [4]: 3.48 h
- total protein half-life in vivo [11]: 3.62 ± 1.9 h
- total protein half-life in vivo [5]: 5.4 h
- total protein half-life in vivo [6]: 1.32 h
- total protein half-life in vivo [7]: 2.23 h
